Data reported in the Immune Epitope Database (IEDB).
Values belong to the sequence of their own block, whether it stands above or below them.

Columns and labels:
HLA-A*02:01 = assay: IEDB peptide-MHC binding, purified MHC/competitive/radioactivity; filed as Kd, often an IC50 or EC50 that approximates it; ≥ and ≤ were set here for values at or beyond the usual limits of such assays
HLA-B*07:02 = assay: as above
HLA-B*35:01 = assay: as above
HLA-B*51:01 = assay: as above
HLA-B*53:01 = assay: as above
HLA-B*54:01 = assay: as above
HLA-B*15:01 = assay: IEDB peptide-MHC binding, purified MHC/direct/fluorescence; filed as Kd, often an IC50 or EC50 that approximates it; ≥ and ≤ were set here for values at or beyond the usual limits of such assays; conditions: source organism: Mammarenavirus lassaense
HLA-B*46:01 = assay: as above
HLA-A*02:02 = assay: IEDB peptide-MHC binding, purified MHC/competitive/radioactivity; filed as Kd, often an IC50 or EC50 that approximates it; ≥ and ≤ were set here for values at or beyond the usual limits of such assays; conditions: source organism: Triticum aestivum
HLA-A*02:03 = assay: as above; conditions: source organism: Triticum aestivum
HLA-A*02:06 = assay: as above; conditions: source organism: Triticum aestivum
HLA-A*68:02 = assay: as above; conditions: source organism: Triticum aestivum
[1] = source organism: Vaccinia virus WR
[2] = source organism: SARS coronavirus Tor2

Sequence: AAGLQDCT
- Kd (HLA-A*02:01; source organism: Hepatitis C virus (isolate 1)): ≥ 50000 nM

Sequence: NPLFHGGEPI
- Kd (HLA-B*07:02; [1]): 8.02 nM
- Kd (HLA-B*35:01; [1]): 3550 nM
- Kd (HLA-B*51:01; [1]): 4460 nM
- Kd (HLA-B*53:01; [1]): 312 nM
- Kd (HLA-B*54:01; [1]): 382 nM

Sequence: KQFKQDAKY
- Kd (HLA-B*15:01): 173 nM
- Kd (HLA-B*46:01; source organism: Mammarenavirus lassaense): ≥ 20000 nM

Sequence: TMDGILKSI
- Kd (HLA-A*02:01; source organism: Lassa virus GA391): ≥ 25000 nM

Sequence: MPICMDVRAI
- Kd (HLA-B*07:02; [2]): 300 nM
- Kd (HLA-B*35:01; [2]): 94.8 nM
- Kd (HLA-B*51:01; [2]): 2.24 nM
- Kd (HLA-B*53:01; [2]): 5.98 nM
- Kd (HLA-B*54:01; [2]): 3.96 nM

Sequence: WPVTLACFVL
- Kd (HLA-B*07:02; [2]): 956 nM
- Kd (HLA-B*35:01; [2]): 71.5 nM
- Kd (HLA-B*51:01; [2]): 9.11 nM
- Kd (HLA-B*53:01; [2]): 73.8 nM
- Kd (HLA-B*54:01; [2]): 3560 nM

Sequence: LSRYVARL
- Kd (HLA-A*02:01; source organism: Hepatitis B virus): ≥ 50000 nM

Sequence: KPVDTSNSF
- Kd (HLA-B*07:02; [2]): 20.7 nM
- Kd (HLA-B*35:01; [2]): 266 nM
- Kd (HLA-B*51:01; [2]): 898 nM
- Kd (HLA-B*53:01; [2]): 151 nM
- Kd (HLA-B*54:01; [2]): 5770 nM

Sequence: AQAVMEMTY
- Kd (HLA-B*46:01; source organism: Yellow fever virus): ≥ 20000 nM

- Kd (HLA-A*02:01; source organism: Triticum aestivum): 256 nM
- Kd (HLA-A*02:02): 4.46 nM
- Kd (HLA-A*02:03): 138 nM
- Kd (HLA-A*02:06): 14.3 nM
- Kd (HLA-A*68:02): 206 nM
Sequence: SQVSFQQPL

Sequence: YPEYNRAVKF
- Kd (HLA-B*07:02; [1]): 122 nM
- Kd (HLA-B*35:01; [1]): 808 nM
- Kd (HLA-B*51:01; [1]): 857 nM
- Kd (HLA-B*53:01; [1]): 41.7 nM
- Kd (HLA-B*54:01; [1]): 473 nM

- Kd (HLA-A*02:01; source organism: Homo sapiens): 91 nM
Sequence: RILGAVAKV
